Data reported in patent publication US20130101602A1 (ARGOS THERAPEUTICS, published 2013).

What was measured:
recombinant human IFN-αC [1] = molecular target: T1, recombinant human IFN-αC (human, UniProt P01566 24-189); assay: SPR (Biacore), mAb amine-coupled on CM5 chip, IFN-α injected, 1:1 Langmuir fit
T1 construct: also called hIFN-αC
Procedure: (§1) The purified monoclonal antibodies were immobilized in individual flow cells on a CM5 type sensor chip. Immobilizations were performed using a standard amine coupling procedure, aiming for an immobilization level of 1000 Resonance Units (RU).
(§2) HBS-EP pH 7.4 (10 mM HEPES, 150 mM NaCl, 3 mM EDTA and 0.005% Polysorbate P20) was used as running buffer, and diluent for the recombinant IFN-α's. Association (injection) was 4 min., followed by a 12 to 30 min. dissociation period. Flow rate was 50 μl/min. Experiments were performed at 25° C. Detection in all flow cells simultaneously. Flow cell #1 contained no immobilized antibody, and was used for subtraction of background and bulk.
(§3) Data was inspected for mass-transport limitations prior to calculation of the kinetic parameters.

[2] = molecular target: T2, recombinant human IFN-αWA (human, UniProt P05015 24-189); assay: as above
T2 construct: also called hIFN-αWA
Procedure: as §1, §2, §3

[3] = molecular target: T3, recombinant human IFN-α4a (human, UniProt P05014 24-189); assay: as above
T3 construct: 4a and 4b are allelic forms of IFNA4; also called hIFN-α4a
T3 sequence (P05014 24-189): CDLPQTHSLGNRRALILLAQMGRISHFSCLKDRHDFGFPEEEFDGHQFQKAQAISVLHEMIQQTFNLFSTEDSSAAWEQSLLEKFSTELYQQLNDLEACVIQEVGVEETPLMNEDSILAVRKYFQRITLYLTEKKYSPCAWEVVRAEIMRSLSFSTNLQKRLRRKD
Procedure: as §1, §2, §3

recombinant human IFN-αG [4] = molecular target: T4, recombinant human IFN-αG (human, UniProt P01569 24-189); assay: as above
T4 construct: also called hIFN-αG
T4 sequence (P01569 24-189): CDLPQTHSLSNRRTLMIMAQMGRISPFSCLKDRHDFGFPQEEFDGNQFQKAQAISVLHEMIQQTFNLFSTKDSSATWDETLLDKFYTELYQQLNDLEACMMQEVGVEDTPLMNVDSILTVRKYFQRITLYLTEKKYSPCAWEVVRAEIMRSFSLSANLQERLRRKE
Procedure: as §1, §2, §3

[5] = molecular target: T5, recombinant human IFN-αJ1 (human, UniProt P01567 24-189); assay: as above
T5 construct: also called hIFN-αJ1
T5 sequence (P01567 24-189 limits assumed): as the sequence (P05014 24-189) above, with G10R, H26P, D35E, G37R, A51T, S116F, T132M, L152F, Q159K, R161G counted along it
Procedure: as §1, §2, §3

[6] = molecular target: T6, recombinant human IFN-αH2 (human, UniProt P01570 24-189); assay: as above
T6 construct: also called hIFN-αH2
T6 sequence (P01570 24-189): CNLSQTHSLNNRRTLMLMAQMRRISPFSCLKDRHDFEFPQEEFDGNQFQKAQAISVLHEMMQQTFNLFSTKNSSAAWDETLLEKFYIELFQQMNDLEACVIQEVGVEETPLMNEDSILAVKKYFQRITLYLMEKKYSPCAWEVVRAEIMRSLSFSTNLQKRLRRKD
Procedure: as §1, §2, §3

recombinant human IFN-αI = molecular target: T7, recombinant human IFN-αI (human, UniProt P01571 24-189); assay: as above
T7 construct: also called hIFN-αI
T7 sequence (P01571 24-189): as the sequence (P05014 24-189) above, with H26P, F38L, E40Q, H46N, A51T, D95N, V106M, R161I counted along it
Procedure: as §1, §2, §3

recombinant human IFN-αK = molecular target: T8, recombinant human IFN-αK (human, UniProt P05013 24-189); assay: as above
T8 construct: also called hIFN-αK
T8 sequence (P05013 24-189): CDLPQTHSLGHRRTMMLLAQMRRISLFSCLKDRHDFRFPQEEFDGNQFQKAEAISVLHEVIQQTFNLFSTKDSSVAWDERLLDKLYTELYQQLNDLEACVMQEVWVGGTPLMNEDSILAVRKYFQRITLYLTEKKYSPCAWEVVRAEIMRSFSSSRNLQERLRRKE
Procedure: as §1, §2, §3

recombinant human IFN-αF [7] = molecular target: T9, recombinant human IFN-αF (human, UniProt P01568 24-189); assay: cell-based or functional assay
T9 sequence (P01568 24-189): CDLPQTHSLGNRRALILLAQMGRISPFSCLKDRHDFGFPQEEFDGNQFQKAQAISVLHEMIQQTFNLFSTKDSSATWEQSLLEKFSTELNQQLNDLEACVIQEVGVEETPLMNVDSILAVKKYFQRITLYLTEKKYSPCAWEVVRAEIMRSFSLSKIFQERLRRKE

recombinant human IFN-αC [8] = molecular target: T1, recombinant human IFN-αC; assay: cell-based or functional assay
recombinant human IFN-αG [9] = molecular target: T4, recombinant human IFN-αG; assay: cell-based or functional assay
recombinant human IFN-αF [10] = molecular target: T9, recombinant human IFN-αF; assay: cell-based or functional assay; remark: listed apart in the source
recombinant human IFN-α1 = molecular target: T10, recombinant human IFN-α1 (human, UniProt P0DY56 24-189); assay: SPR (Biacore), mAb immobilised, IFN-α injected
T10 construct: both come from gene 1; also called hIFN-α1; subtype 1 (Ala114)
T10 sequence (P0DY56 entry or part of it limits assumed): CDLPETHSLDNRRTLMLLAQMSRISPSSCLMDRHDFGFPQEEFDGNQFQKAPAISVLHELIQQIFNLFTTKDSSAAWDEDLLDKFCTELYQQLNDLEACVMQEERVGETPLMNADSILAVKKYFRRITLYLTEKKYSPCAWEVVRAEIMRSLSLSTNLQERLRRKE
Procedure: as §1, §2, §3

recombinant human IFN-αC [11] = molecular target: T1, recombinant human IFN-αC; assay: cell-based or functional assay; remark: listed apart in the source
[12] = molecular target: T3, recombinant human IFN-α4a; assay: cell-based or functional assay
[13] = molecular target: various IFN-α subtypes (those inhibited in the reporter gene assay of FIG. 5); assay: cell-based or functional assay
[14] = molecular target: recombinant human IFN-αA (human) (UniProt P01563); assay: SPR (Biacore), KD normalised to hzACO-1
Chain of recombinant human IFN-αA (human) (P01563 other isoform, or with tags, fused parts or gaps): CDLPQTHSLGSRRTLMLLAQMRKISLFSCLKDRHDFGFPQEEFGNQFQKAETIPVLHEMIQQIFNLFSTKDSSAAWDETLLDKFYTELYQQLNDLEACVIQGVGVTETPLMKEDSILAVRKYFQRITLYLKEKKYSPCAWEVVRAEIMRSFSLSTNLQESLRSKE

recombinant human IFN-αG [15] = molecular target: T4, recombinant human IFN-αG; assay: cell-based or functional assay; remark: listed apart in the source
[16] = molecular target: T5, recombinant human IFN-αJ1; assay: cell-based or functional assay
recombinant human IFN-αF [17] = molecular target: T9, recombinant human IFN-αF; assay: cell-based or functional assay; remark: listed apart in the source
[18] = molecular target: recombinant human IFN-αA (human) (UniProt P01563); assay: SPR (Biacore), mAb amine-coupled on CM5 chip, IFN-α injected, 1:1 Langmuir fit
[19] = molecular target: recombinant human IFN-αA (human) (UniProt P01563); assay: cell-based or functional assay

T1 sequence (P01566 24-189): as the sequence (P05014 24-189) above, with A19G, H26P, G37R, F38I, E40Q, H46N, T132I, K134R counted along it
T2 sequence (P05015 24-189): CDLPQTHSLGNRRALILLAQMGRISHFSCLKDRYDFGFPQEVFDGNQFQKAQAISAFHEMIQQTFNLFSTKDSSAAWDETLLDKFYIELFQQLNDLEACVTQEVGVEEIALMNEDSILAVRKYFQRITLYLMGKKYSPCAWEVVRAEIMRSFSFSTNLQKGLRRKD

B1: hzACO-1 (humanized ACO-1) (antibody, human IgG4, V domains shown)
VH: QVQLVQSGAEVKKPGASVKVSCKASGYTFTNYWMHWVRQAPGQGLEWMGEINPSHGRTIYAQKFQGRVTMTRDTSTSTVYMELSSLRSEDTAVYYCARGGLGPAWFAYWGQGTLVTVSS
VL: EIVLTQSPATLSLSPGERATLSCSAGSSVDSSYLYWYQQKPGQAPRLLIYSTSNLASGIPARFSGSGSGTDFTLTISSLEPEDFAVYYCHQWSSYPFTFGQGTKLEIKR
notes: also called hzACO-1 IgG4; hzACO-1-IgG4
Which results are given for B1?
Kd (recombinant human IFN-αC [1]): 1.05 nM; Kd [2]: 4.1 nM; Kd [3]: 3.45 nM; Kd (recombinant human IFN-αG [4]): 0.92 nM; Kd [5]: 4.81 nM; Kd [6]: 3.21 nM; Kd (recombinant human IFN-αI): 2.81 nM; Kd (recombinant human IFN-αK): 1.44 nM; IC50 (reporter gene assay, Mx promoter-luciferase in 93D7 cells) (recombinant human IFN-αF [7]): 0.277 µg/mL; IC50 (read off the curve) (reporter gene assay) (recombinant human IFN-αC [8]): ~0.03 µg/mL; IC50 (read off the curve) (reporter gene assay) (recombinant human IFN-αG [9]): ~0.05 µg/mL; IC50 (read off the curve) (reporter gene assay) (recombinant human IFN-αF [10]): ~0.3 µg/mL; binding result (recombinant human IFN-α1): no binding; IC50 (read off the curve) (CPE assay) (recombinant human IFN-αC [11]): ~0.008 µg/mL; IC50 (read off the curve) (CPE assay) [12]: ~0.06 µg/mL; IC50, reporter gene (Mx promoter-luciferase) assay in 93D7 cells [13]: 0.028 to 0.314 µg/mL

B2: hzACO-1-kabat CDRH2 (antibody, V domains shown)
VH: QVQLVQSGAEVKKPGASVKVSCKASGYTFTNYWMHWVRQAPGQGLEWMGEINPSHGRTIYNENFKSRVTMTRDTSTSTVYMELSSLRSEDTAVYYCARGGLGPAWFAYWGQGTLVTVSS
VL: EIVLTQSPATLSLSPGERATLSCSAGSSVDSSYLYWYQQKPGQAPRLLIYSTSNLASGIPARFSGSGSGTDFTLTISSLEPEDFAVYYCHQWSSYPFTFGQGTKLEIK
For B2, which KD mAb/KD hzACO-1 [14] is on record?
The KD mAb/KD hzACO-1 was 0.9.

And the “IC50 value relative to hzACO-1 (RG assay)” value (recombinant human IFN-αG [15])?
The value was 0.78.

What about the “IC50 value relative to hzACO-1 (RG assay)” value [16] of the same binder?
Its value is 1.15.

What about the “IC50 value relative to hzACO-1 (RG assay)” value (recombinant human IFN-αF [17]) of the same binder?
The value was 0.95.

And the koff [18]?
Its koff is 0.000341 s⁻¹.

What about the kon [18] of the same binder?
Its kon is 205000 M⁻¹ s⁻¹.

And the IC50 value relative to hzACO-1 (RG assay) [19]?
Its IC50 value relative to hzACO-1 (RG assay) is 0.95.

B3: ACO-1 (murine anti-IFN-α antibody, recombinant) (antibody, V domains shown)
VH: QVQLQQPGAELVKPGASVKLSCKASGYTFTNYWMHWVKQRPGQGLEWIGEINPSHGRTIYNENFKSKATLTVDKSSITAFMQLSSLTSEDSAVYFCARGGLGPAWFAYWGQGTLVTVSA
VL: QIVLTQSPAIMSASPGEKVTLTCSAGSSVDSSYLYWYQQKPGSSPKLWIYSTSNLASGVPARFSGSGSGTSYSLTISSMEAEDAASYFCHQWSSYPFTFGSGTKLEIKR
Which “IC50 value relative to hzACO-1 (RG assay)” value (recombinant human IFN-αG [15]) does the source give for B3 here?
The value was 0.56.

And the “IC50 value relative to hzACO-1 (RG assay)” value [16]?
Its value is 0.58.

What about the “IC50 value relative to hzACO-1 (RG assay)” value (recombinant human IFN-αF [17]) of the same binder?
The value was 0.82.

B4: hzACO-1-A93V (antibody, human IgG4, name in Kabat numbering, V domains shown)
VH: QVQLVQSGAEVKKPGASVKVSCKASGYTFTNYWMHWVRQAPGQGLEWMGEINPSHGRTIYAQKFQGRVTMTRDTSTSTVYMELSSLRSEDTAVYYCVRGGLGPAWFAYWGQGTLVTVSS
VL: EIVLTQSPATLSLSPGERATLSCSAGSSVDSSYLYWYQQKPGQAPRLLIYSTSNLASGIPARFSGSGSGTDFTLTISSLEPEDFAVYYCHQWSSYPFTFGQGTKLEIKR
Which “IC50 (reporter gene assay, Mx promoter-luciferase in 93D7 cells)” value (recombinant human IFN-αF [7]) does the source give for B4 here?
Its value is 0.156 µg/mL.
